For the data set, the system named is K4 kissing-loop RNA reporter. Nature of the data set: apparent KD of K4 kissing-loop reporter; higher = weaker reporter binding. Particulars: Eterna round: R107. Here is the method:
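RNA-MaP round R107: designed RNA switches with theophylline, tryptophan, arginine or FMN aptamers are transcribed on-chip within common flanks. They are titrated with a labelled K4 kissing-loop RNA reporter in RNA-MaP buffer (100 mM Tris pH 7.5, 80 mM KCl, 4 mM MgCl2), without ligand or with the indicated ligand. Median apparent KD per design.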

The mark [1] stands for this setting: input ligand: theophylline 20 uM.
The mark [2] stands for this setting: input ligand: tryptophan 2.4 mM.
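Also: bound reporter read as fluorescence of individual clusters on recovered sequencing chips by microscopy, with normalized cluster intensities fitted with a binding model.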

Consider “AGAUGACAGGGAGGAUAUCCUAAUAUGGGUGAUGUUAGCGAUGUUGAAGGUGUAGUGAUGUUAUGCGGAGAAGGCCCUGUUGUUU [BDazzled - #23 - Exc. FMN B]”, for which the “apparent KD of K4 kissing-loop reporter” value turned out to be 82.4 nM (input ligand: FMN 200 uM); 61.7 nM (input ligand: arginine 13.2 mM); 115 nM (input ligand: none); 78.7 nM under setting [1]; 78.5 nM under setting [2].
As to “AGCAAUAUCACGGCCGCCACUGAAUAUUGUUUUUAUAGUUAUAAAUCUUGCCAGUGAUGUUGGUUCAGGACCGGGUGAGUUAAUA [JR_SSTryptoB_Sub003]”, the “apparent KD of K4 kissing-loop reporter” value (input ligand: FMN 200 uM) was 572 nM; the “apparent KD of K4 kissing-loop reporter” value (input ligand: arginine 13.2 mM) worked out at 596 nM; the “apparent KD of K4 kissing-loop reporter” value (input ligand: none) is 625 nM; the “apparent KD of K4 kissing-loop reporter” value under setting [1] was found to be 748 nM; the “apparent KD of K4 kissing-loop reporter” value under setting [2] came to 429 nM.
With “AGCAGCAAAUCCUAGUGAUGUUAGGAUAUGUAGGAUAUCGGGAUACCGAGAAGGACAGAAGGAGGAGUGAUGUUCCUAAGCUGCA [FmnAX 24 #DoubleAptamer #DoubleK4 #SwitchBubble]”, the “apparent KD of K4 kissing-loop reporter” value reads like this: (input ligand: FMN 200 uM) 143 nM; (input ligand: arginine 13.2 mM) 112 nM; (input ligand: none) 114 nM; under setting [1], 122 nM; under setting [2], 107 nM.
For “AGCCAUCACACGGCCGCCACUGAGUAGUGAUGUUGCUUGUAAAUCAGUCACCGCAUUAAUGCCGACAGGACCGGGUGCAUCGAGG [theeternabot_exclusion_KL_Trp_B_17]”, in that order: 327 nM, 142 nM, 327 nM, 394 nM and 247 nM.
“AGCGAUGUUUUCUCUAAGAGUGAUGUUUUUCGAGGACCGGUACGGCCGCCACUCGAAUAAAGAGUGUGGUAGUGAGCUGUUGACU [qqmullin]”: the “apparent KD of K4 kissing-loop reporter” value came to 622 nM (input ligand: FMN 200 uM); 256 nM (input ligand: arginine 13.2 mM); 451 nM (input ligand: none); 442 nM under setting [1]; 278 nM under setting [2].
As to “AGCUAUUAGACGGCCGCCACUUGCUCUGAGACCUGACAUGGAACCAGUGAUGUUGGUUUGCGUGUAAGGACCGGGUUUGGUGGCG [Tiesbi]”, the “apparent KD of K4 kissing-loop reporter” value (input ligand: FMN 200 uM) came to 107 nM; the “apparent KD of K4 kissing-loop reporter” value (input ligand: arginine 13.2 mM) was 92.2 nM; the “apparent KD of K4 kissing-loop reporter” value (input ligand: none) amounted to 99.1 nM; the “apparent KD of K4 kissing-loop reporter” value under setting [1] was determined as 88.7 nM; the “apparent KD of K4 kissing-loop reporter” value under setting [2] came out at 104 nM.
Consider “AGGAGUGAUGUUCCUACAUACACGGUCCGACGAGGACCGGUACGGCCGCCACUCGCGUCCCAGUGAUGUUGGGAUUUGGCGUACA [Exclusion Tryptophan A Gf 16]”, for which the “apparent KD of K4 kissing-loop reporter” value (input ligand: FMN 200 uM) was 162 nM; the “apparent KD of K4 kissing-loop reporter” value (input ligand: arginine 13.2 mM) amounted to 168 nM; the “apparent KD of K4 kissing-loop reporter” value (input ligand: none) was found to be 180 nM; the “apparent KD of K4 kissing-loop reporter” value under setting [1] amounted to 141 nM; the “apparent KD of K4 kissing-loop reporter” value under setting [2] was found to be 144 nM.
On to “AGGAUCACGUCAGUGAUGUUGACAAGAGAUACCAGAGACGAAAGUCUCCCUUGGCAGCUCAUUGUGAUCCGUGACAAAGGUCACA [Omei KL hio A SS C v2]”, for which the “apparent KD of K4 kissing-loop reporter” value by setting is: (input ligand: FMN 200 uM) 353 nM; (input ligand: arginine 13.2 mM) 293 nM; (input ligand: none) 413 nM; under setting [1], 593 nM; under setting [2], 186 nM.
For the sequence “AGGAUCCACCAGUGAUGUUGGAAAUACUCCAAGGAUAUGACGAAAGUCAGAAGGUGGUAGACUGGACAAAGUCCAGUCGGAUCCA [FmnA 28 #SwitchBubble #K4Early]”, the “apparent KD of K4 kissing-loop reporter” value by setting is: (input ligand: FMN 200 uM) 534 nM; (input ligand: arginine 13.2 mM) 247 nM; (input ligand: none) 602 nM; under setting [1], 486 nM; under setting [2], 346 nM.
As to “AGGAUCCGUCGACAAAAGUCGACAUAAUCCGAGGAUAUGACGAAAGUCAGAAGGUGGACAUAAGUCCAGUGAUGUUGGAGGAUCC [FmnA 17 #SwitchBubble #K4Late]”, the “apparent KD of K4 kissing-loop reporter” value came out at 847 nM (input ligand: FMN 200 uM); 218 nM (input ligand: arginine 13.2 mM); 441 nM (input ligand: none); 420 nM under setting [1]; 193 nM under setting [2].
“AGGAUGUAGUGAUGUUAUAUAAGAAGUAAACGAGGACCGGUACGGCCGCCACUCGAAGCGGCUACUAGCGCGCCGCGAGGCGCGC [ExTryptoA.Cb]”: the “apparent KD of K4 kissing-loop reporter” value was found to be 370 nM (input ligand: FMN 200 uM); 391 nM (input ligand: arginine 13.2 mM); 958 nM (input ligand: none); 361 nM under setting [1]; 358 nM under setting [2].
Consider “AGGAUGUAGUGAUGUUAUAUAAGAAGUAAACGAGGACCGGUACGGCCGCCACUCGAAGCGGCUACUAGCGCGUUGCGAGGUGUGC [ExTryptoA.Ce]”, for which the “apparent KD of K4 kissing-loop reporter” value stood at 492 nM (input ligand: FMN 200 uM); 384 nM (input ligand: arginine 13.2 mM); 581 nM (input ligand: none); 656 nM under setting [1]; 378 nM under setting [2].
For “AGGCACGAGCAAGGAUAUCGAGUAGAGUGAUGUUCUGCCUGGGUUGGCUCGAAAGGGCCUUCCCAGCGAGAAGGUGCUCGUGCCU [#2 Same State - FMN A Attempt #14 (HarryS)]”, the “apparent KD of K4 kissing-loop reporter” value reads like this: (input ligand: FMN 200 uM) 219 nM; (input ligand: arginine 13.2 mM) 325 nM; (input ligand: none) 300 nM; under setting [1], 1040 nM; under setting [2], 619 nM.
In the case of “AGGCACGAGCAAGGAUAUCGAGUAGAGUGAUGUUCUGCCUGGGUUGGCUCGUAAGGGCCUUCCCAGCGAGAAGGUGCUCGUGCCU [#2 Same State - FMN A Attempt #15 (HarryS)]”, the “apparent KD of K4 kissing-loop reporter” value (input ligand: FMN 200 uM) was determined as 221 nM; the “apparent KD of K4 kissing-loop reporter” value (input ligand: arginine 13.2 mM) worked out at 632 nM; the “apparent KD of K4 kissing-loop reporter” value (input ligand: none) amounted to 877 nM; the “apparent KD of K4 kissing-loop reporter” value under setting [1] stood at 581 nM; the “apparent KD of K4 kissing-loop reporter” value under setting [2] came to 757 nM.
“AGGCACGAGCAAGGAUAUUGAGUAGAGUGAUGUUCUGCCUGGGUUGGCUCGGAAGAGCCUUCUCAGCGAGAAGGUGCUCGUGCCU [#2 Same State - FMN A Attempt #24 (HarryS)]”: the “apparent KD of K4 kissing-loop reporter” value (input ligand: FMN 200 uM) stood at 261 nM; the “apparent KD of K4 kissing-loop reporter” value (input ligand: arginine 13.2 mM) worked out at 475 nM; the “apparent KD of K4 kissing-loop reporter” value (input ligand: none) came out at 785 nM; the “apparent KD of K4 kissing-loop reporter” value under setting [1] turned out to be 542 nM; the “apparent KD of K4 kissing-loop reporter” value under setting [2] came to 556 nM.
As to “AGGUGAGACUGAAGGAGCGAUCGCGCUAGUGAUGUUGGCGAGCAUGACAAAGUCAUGCACGAUCAGGUAGGUCGCAGUCUUACUC [Omei KL Arginine B SS B v1]”, the “apparent KD of K4 kissing-loop reporter” value runs as follows: (input ligand: FMN 200 uM) 128 nM; (input ligand: arginine 13.2 mM) 103 nM; (input ligand: none) 137 nM; under setting [1], 123 nM; under setting [2], 141 nM.
For “AGUACAGACACGGCCGCCACUCAGAAGAAGACAGUAGUGAUGUUACUGAUGGUGAGAAUAAUAAAGAGGACCGGGUGUUGUGCAA [#04 K4 Tryptophan B Same State]”, the “apparent KD of K4 kissing-loop reporter” value is, setting by setting: (input ligand: FMN 200 uM) 222 nM; (input ligand: arginine 13.2 mM) 202 nM; (input ligand: none) 224 nM; under setting [1], 240 nM; under setting [2], 138 nM.

The values above are taken from the supplement of paper PMC9170038.
